Data set [1] in a line: Test 7: in vivo ocular toxicity test, TB staining of eye sections. Also on record: species or system Balb/c mice. The settings on record: eyes removed day 29, FIG. 17. How it is done: The ocular toxicity test was carried out using Balb/c mice. The mice intravenously received “20A77_mIgG1”, “24A1_mIgG1” or an isotype control antibody mIgG1 at a dose of 10 mg/kg at a frequency of twice a week. As a positive control of ocular toxicity, mice orally received a MerTK small molecule inhibitor UNC569 at a dose of 150 mg/kg for 10 days. At day 29 after the first administration, eyes were removed, fixed with a Karnovsky's fixative and then subjected to embedding in a resin, preparation of sections and toluidine blue staining (hereinafter also referred to as “TB staining”) carried out by Applied Medical Research Laboratory.

For data set [2] the following is noted: administration to mice; Non-Patent Document 3; cited from earlier work.
For data set [3], the system named is mouse colon cancer cell line CT26. Put plainly: Test 4: efficacious dosage in CT26 syngeneic tumor model. The format is in vivo, Balb/c mice. Particulars: vs solvent control. How it is done:
(§1) CT26 cells (5×10^6 cells per mouse) were subcutaneously transplanted to Balb/c mice at the right flank. After 5 days of the tumor transplantation, the mice were divided into groups and an isotype control antibody mIgG2a and “20A77_mIgG2a” were respectively intraperitoneally administered at a dose of 10 mg/kg at a frequency of twice a week. After the administration, the tumor size was measured at a frequency of twice a week until day 19 after the tumor transplantation. The tumor size was calculated from the equation below with the minor axis and the major axis of the tumor measured using calipers:
On the basis of the procedures indicated below, anti-tumor effects of “20A77_mIgG1” and “24A1_mIgG1” according to the dosage thereof were evaluated. As “Test 3” above, a syngeneic tumor model using the mouse colon cancer cell line CT26 (ATCC) was used for the evaluation.
In the “20A77_mIgG1” administration group, a solvent (1% histidine buffer, pH 6.0) and “20A77_mIgG1” were intraperitoneally administered at a dose of 3, 10 or 30 mg/kg at a frequency of twice a week. […] The tumor size was measured at a frequency of twice a week until day 19 and 22 after the tumor transplantation for the “20A77_mIgG1” and “24A1_mIgG1” administration groups, respectively.

For data set [4] the test system is unchanged. Nature of the data set: Test 5: combined administration with anti-PD-1 antibody in CT26 syngeneic tumor model. The settings on record: 5 mg/kg plus anti-mouse PD-1 antibody 29F.1A12 0.3 mg/kg, twice a week until day 19; FIGS. 11 and 12. The data set is classed as in vivo, Balb/c mice. How it is done:
as §1
On the basis of the procedures indicated below, anti-tumor effects of combined use of each of “20A77_mIgG1” and “24A1_mIgG1” and an anti-PD-1 antibody were evaluated. As “Test 3” above, a syngeneic tumor model using the mouse colon cancer cell line CT26 (ATCC) was used for the evaluation. Anti-PD-1 antibodies are known to have anti-tumor effects.
The administration groups received the antibodies indicated below at a frequency of twice a week. […]

For the molecule `CCCCNc1ncc2c(-c3ccc(F)cc3)nn(CC3CCC(N)CC3)c2n1` (stereo not drawn) [UNC569, reference compound], the “TB-positive granules in the retinal pigment epithelium” value in data set [1] (positive control, 150 mg/kg oral for 10 days) is listed as “increased TB-positive granules”. Also, the “ocular toxicity: toluidine blue-positive granules and vacuoles in photoreceptor” value in data set [2] is “increased toluidine blue-positive granules and vacuoles in photoreceptor, resulting in ocular toxicity”.

B1: 24A1_mIgG1: recombinant mouse IgG1 antibody with 24A1 variable regions (antibody, V domains shown)
VH: EVQLVESGGGLVQPKGSLKLSCAASGFTFNVYDMHWVRQAPGEGLEWVARIRSKSSNYATNYADSVKDRFTISRDDSQSMLYLQMNNLQTEDTAIYYCVRDGSHYYYALDYWGQGTSVTVSS
VL: DIQMTQTTSSLSASLGDRVTISCRASQDINNYLNWYQQKLDGTVKLLIYYSSRLHSGVPSRFSGSGSGTDYSLTISNLEQEDIATYFCQQGKMFPWTFGGGTKLEIK
For the molecule B1, the “tumor growth suppressing effect” value in data set [3] (5 mg/kg intraperitoneal twice a week, until day 22, FIGS. 9 and 10) is recorded as “significant tumor growth suppression”; in data set [3] (30 mg/kg intraperitoneal twice a week, day 19 (20A77_mIgG1) or day 22 (24A1_mIgG1)), “significant tumor growth suppression”. Moreover, in data set [1] (10 mg/kg intravenous twice a week), the “TB-positive granules in the retinal pigment epithelium” value is “no increase in TB-positive granules was observed”. Besides, the “anti-tumor effects of combined use with anti-PD-1 antibody” value in data set [4] is reported as “had enhanced anti-tumor effects”.

The record behind these values is patent US20250326862A1, “Antibody or Fragment Thereof Binding Specifically to Mertk, and Anti-Tumor Agent” (Chiome Bioscience Inc., priority 2021, published 2025).
